Patent US20140161800A1 (APTEVO RESEARCH AND DEVELOPMENT, published 2014)

B1: TSC085 chimeric SMIP (murine 107-1A4 VL-VH scFv-human Fc) (Fc fusion)
chain: DVQITQSPSYLAASPGETITINCRASKSISKYLAWYQEKPGKANKLLIHSGSTLQSGIPSRFSGSGSGTDFTLTISSLEPEDFAMYYCQQHIEYPWTFGGGTKLEIKRAGGGGSGGGGSSGGGGSEIQLQQSGPELVKPGASVKMSCKASGYTFTDYYMHWVKQNNGESLEWIGYFNPYNDYTRYNQNFNGKATLTVDKSSSTAYMQLNSLTSEDSAFYYCARSDGYYDAMDYWGQGTSVTVSSSEPKSSDKTHTCPPCPAPEAAGAPSVFLFPPKPKDTLMISRTPEVTCVVVDVSHEDPEVKFNWYVDGVEVHNAKTKPREEQYNSTYRVVSVLTVLHQDWLNGKAYACAVSNKALPAPIEKTISKAKGQPREPQVYTLPPSRDELTKNQVSLTCLVKGFYPSDIAVEWESNGQPENNYKTTPPVLDSDGSFFLYSKLTVDKSRWQQGNVFSCSVMHEALHNHYTQKSLSLSPGK
notes: scFv-hinge-Fc
B2: TSC092 chimeric SMIP (murine 107-1A4 VH-VL scFv-human Fc) (Fc fusion)
chain: EIQLQQSGPELVKPGASVKMSCKASGYTFTDYYMHWVKQNNGESLEWIGYFNPYNDYTRYNQNFNGKATLTVDKSSSTAYMQLNSLTSEDSAFYYCARSDGYYDAMDYWGQGTSVTVSSGGGGSGGGGSSGGGGSDVQITQSPSYLAASPGETITINCRASKSISKYLAWYQEKPGKANKLLIHSGSTLQSGIPSRFSGSGSGTDFTLTISSLEPEDFAMYYCQQHIEYPWTFGGGTKLEIKRASSEPKSSDKTHTCPPCPAPEAAGAPSVFLFPPKPKDTLMISRTPEVTCVVVDVSHEDPEVKFNWYVDGVEVHNAKTKPREEQYNSTYRVVSVLTVLHQDWLNGKAYACAVSNKALPAPIEKTISKAKGQPREPQVYTLPPSRDELTKNQVSLTCLVKGFYPSDIAVEWESNGQPENNYKTTPPVLDSDGSFFLYSKLTVDKSRWQQGNVFSCSVMHEALHNHYTQKSLSLSPGK
notes: scFv-hinge-Fc
B3: TSC188 humanized SMIP (107-1A4 VL-VH#1 scFv-Fc) (Fc fusion)
chain: DIQMTQSPSAMSASVGDRVTITCRASKSISKYLAWFQQKPGKVPKLRIHSGSTLQSGVPSRFSGSGSGTEFTLTISSLQPEDFATYYCQQHIEYPWTFGQGTKVEIKRGGGGSGGGGSGGGGSEVQLVQSGAEVKKPGATVKISCKASGYTFTDYYMHWVQQAPGKGLEWMGYFNPYNDYTRYAEKFQGRVTITADTSTDTAYMELSSLRSEDTAVYYCARSDGYYDAMDYWGQGTTVTVSSSEPKSSDKTHTCPPCPAPEAAGAPSVFLFPPKPKDTLMISRTPEVTCVVVDVSHEDPEVKFNWYVDGVEVHNAKTKPREEQYNSTYRVVSVLTVLHQDWLNGKAYACAVSNKALPAPIEKTISKAKGQPREPQVYTLPPSRDELTKNQVSLTCLVKGFYPSDIAVEWESNGQPENNYKTTPPVLDSDGSFFLYSKLTVDKSRWQQGNVFSCSVMHEALHNHYTQKSLSLSPGK
notes: scFv-hinge-Fc
B4: TSC189 humanized SMIP (107-1A4 VL-VH#2 scFv-Fc) (Fc fusion)
chain: DIQMTQSPSAMSASVGDRVTITCRASKSISKYLAWFQQKPGKVPKLRIHSGSTLQSGVPSRFSGSGSGTEFTLTISSLQPEDFATYYCQQHIEYPWTFGQGTKVEIKRGGGGSGGGGSGGGGSQVQLVQSGAEVKKPGASVKVSCKASGYTFTDYYMHWVRQAPGQGLEWMGYFNPYNDYTRYAQKFQGRVTMTRDTSISTAYMELSSLRSDDTAVYYCARSDGYYDAMDYWGQGTTVTVSSSEPKSSDKTHTCPPCPAPEAAGAPSVFLFPPKPKDTLMISRTPEVTCVVVDVSHEDPEVKFNWYVDGVEVHNAKTKPREEQYNSTYRVVSVLTVLHQDWLNGKAYACAVSNKALPAPIEKTISKAKGQPREPQVYTLPPSRDELTKNQVSLTCLVKGFYPSDIAVEWESNGQPENNYKTTPPVLDSDGSFFLYSKLTVDKSRWQQGNVFSCSVMHEALHNHYTQKSLSLSPGK
notes: scFv-hinge-Fc
B5: TSC194 Scorpion (huVL-VH#2 107-1A4 scFv-Fc-Cris7 scFv) (bispecific antibody)
chain: DIQMTQSPSAMSASVGDRVTITCRASKSISKYLAWFQQKPGKVPKLRIHSGSTLQSGVPSRFSGSGSGTEFTLTISSLQPEDFATYYCQQHIEYPWTFGQGTKVEIKRGGGGSGGGGSGGGGSQVQLVQSGAEVKKPGASVKVSCKASGYTFTDYYMHWVRQAPGQGLEWMGYFNPYNDYTRYAQKFQGRVTMTRDTSISTAYMELSSLRSDDTAVYYCARSDGYYDAMDYWGQGTTVTVSSSEPKSSDKTHTCPPCPAPEAAGAPSVFLFPPKPKDTLMISRTPEVTCVVVDVSHEDPEVKFNWYVDGVEVHNAKTKPREEQYNSTYRVVSVLTVLHQDWLNGKAYACAVSNKALPAPIEKTISKAKGQPREPQVYTLPPSRDELTKNQVSLTCLVKGFYPSDIAVEWESNGQPENNYKTTPPVLDSDGSFFLYSKLTVDKSRWQQGNVFSCSVMHEALHNHYTQKSLSLSPGQRHNNSSLNTGTQMAGHSPNSQVQLVQSGGGVVQPGRSLRLSCKASGYTFTRSTMHWVRQAPGKGLEWIGYINPSSAYTNYNQKFKDRFTISADKSKSTAFLQMDSLRPEDTGVYFCARPQVHYDYNGFPYWGQGTPVTVSSGGGGSGGGGSGGGGSAQDIQMTQSPSSLSASVGDRVTMTCSASSSVSYMNWYQQKPGKAPKRWIYDSSKLASGVPARFSGSGSGTDYTLTISSLQPEDFATYYCQQWSRNPPTFGGGTKLQITR
notes: also called humanized SCORPION molecule
B6: TSC199 Scorpion (huVL-VH#1 107-1A4 scFv-Fc-Cris7 scFv) (bispecific antibody)
chain: DIQMTQSPSAMSASVGDRVTITCRASKSISKYLAWFQQKPGKVPKLRIHSGSTLQSGVPSRFSGSGSGTEFTLTISSLQPEDFATYYCQQHIEYPWTFGQGTKVEIKRGGGGSGGGGSGGGGSEVQLVQSGAEVKKPGATVKISCKASGYTFTDYYMHWVQQAPGKGLEWMGYFNPYNDYTRYAEKFQGRVTITADTSTDTAYMELSSLRSEDTAVYYCARSDGYYDAMDYWGQGTTVTVSSSEPKSSDKTHTCPPCPAPEAAGAPSVFLFPPKPKDTLMISRTPEVTCVVVDVSHEDPEVKFNWYVDGVEVHNAKTKPREEQYNSTYRVVSVLTVLHQDWLNGKAYACAVSNKALPAPIEKTISKAKGQPREPQVYTLPPSRDELTKNQVSLTCLVKGFYPSDIAVEWESNGQPENNYKTTPPVLDSDGSFFLYSKLTVDKSRWQQGNVFSCSVMHEALHNHYTQKSLSLSPGQRHNNSSLNTGTQMAGHSPNSQVQLVQSGGGVVQPGRSLRLSCKASGYTFTRSTMHWVRQAPGKGLEWIGYINPSSAYTNYNQKFKDRFTISADKSKSTAFLQMDSLRPEDTGVYFCARPQVHYDYNGFPYWGQGTPVTVSSGGGGSGGGGSGGGGSAQDIQMTQSPSSLSASVGDRVTMTCSASSSVSYMNWYQQKPGKAPKRWIYDSSKLASGVPARFSGSGSGTDYTLTISSLQPEDFATYYCQQWSRNPPTFGGGTKLQITR
notes: as for B5

Experiments:
[1] = molecular target: T1, prostate-specific membrane antigen (PSMA) (human, UniProt Q04609 1-750); test: flow cytometry on PSMA+ prostate cancer cells (FIG. 1)
T1 construct: whole, on cells; also called glutamate carboxypeptidase II; N-acetylated alpha-linked acidic dipeptidase 1

[2] = molecular target: T1, prostate-specific membrane antigen …; test: flow cytometry on PSMA+ C4-2 cells (FIG. 2A)
Procedure: (§1) A typical experiment would label 300,000 cells per well with a range of 200 nM to 0.1 nM binding molecule in 100 ul of FACS buffer (PBS+2% normal goat serum+2% fetal bovine serum+0.1% sodium azide) on ice, followed by washes and incubation with fluorescently-labeled secondary antibody, goat anti-human IgG (1:400 dilution of Invitrogen #11013=5 ug/ml). After washing secondary antibody off cells, cells were incubated with 7-Aminoactinomycin D (7-AAD) staining solution (BD Pharmingen™ cat#559925) (6 ul of 7AAD to 100 ul of FACS Buffer) for 20 minutes. Signal from bound molecules was detected using a FACSCalibur™ flow cytometer (BD Biosciences) and analyzed by FlowJo flow cytometry analysis software. 7-AAD+ cells were excluded from analysis. Nonlinear regression analysis to determine EC50s was performed in GraphPad Prism® graphing and statistics software.

[3] = molecular target: T1, prostate-specific membrane antigen …; test: flow cytometry on PSMA+ C4-2 cells (FIG. 2B)
Procedure: as §1

T1 sequence (Q04609 whole entry): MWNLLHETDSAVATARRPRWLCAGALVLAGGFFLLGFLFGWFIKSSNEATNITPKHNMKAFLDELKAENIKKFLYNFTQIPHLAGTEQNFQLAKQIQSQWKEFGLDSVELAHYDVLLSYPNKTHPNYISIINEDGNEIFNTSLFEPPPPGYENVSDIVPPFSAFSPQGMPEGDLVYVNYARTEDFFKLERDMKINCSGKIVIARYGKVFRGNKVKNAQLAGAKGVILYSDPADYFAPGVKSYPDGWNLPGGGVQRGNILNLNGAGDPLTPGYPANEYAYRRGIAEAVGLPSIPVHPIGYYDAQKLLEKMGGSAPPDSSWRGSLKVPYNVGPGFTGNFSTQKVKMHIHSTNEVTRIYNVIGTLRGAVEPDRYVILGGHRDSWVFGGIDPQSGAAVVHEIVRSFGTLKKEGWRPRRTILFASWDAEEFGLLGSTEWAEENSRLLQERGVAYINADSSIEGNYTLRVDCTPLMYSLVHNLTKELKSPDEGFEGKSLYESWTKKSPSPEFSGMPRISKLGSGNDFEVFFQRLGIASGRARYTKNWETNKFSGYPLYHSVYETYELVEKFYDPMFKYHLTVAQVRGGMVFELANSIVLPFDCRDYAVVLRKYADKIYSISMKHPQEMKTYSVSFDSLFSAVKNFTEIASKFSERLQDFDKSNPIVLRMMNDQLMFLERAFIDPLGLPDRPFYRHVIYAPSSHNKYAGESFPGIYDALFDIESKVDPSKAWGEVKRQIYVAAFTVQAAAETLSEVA

Binder | binding result [1] | binding result [2] | binding result [3]
B1 | binds | – | –
B2 | binds | – | –
B3 | – | binds | –
B4 | – | binds | –
B5 | – | – | binds
B6 | – | – | binds
